Columns and labels:
β3 integrin = target: T1, β3 integrin (Homo sapiens, UniProt P05106); assay: Integrin co-immunoprecipitation assay, Western blot for β3 integrin; assay type: binding; details: human fibroblast lysates, nickel beads
T1 construct: endogenous in cells; host or cells: Normal Human Dermal Fibroblasts (NHDF), 1% TX-100 lysate
Experimental: (§1) A T-175 flask of NHDFs was grown to complete confluence, washed three times in MES buffer and lysed in 1 mL MES buffer+1% TX-100 (a detergent). Lysate was spun at 10,000 g for 10 minutes to remove cell debris. Cell lysate (350 μL) was then incubated with 20 μg gBDLD for 4 hours at 4° C. The lysate+gBDLD mixture was then incubated with 50 μL Ni beads overnight at 4° C. Nickel beads were then washed three times and protein eluted by boiling and then adding reducing SDS-PAGE buffer. Proteins were separated by SDS-PAGE and Western blotted for β1 integrin (Chemicon-1965) or β3 (Chemicon) as previously described.^48
(§2) To identify the cellular receptor for gBDLD we performed co-immunoprecipitation studies. Briefly, gBDLD was incubated with human fibroblast lysates and pulled down with nickel-conjugated agarose beads.
(§3) Because gBDLD contains a known β1 integrin binding motif, gBDLD bound to its cellular receptor was isolated by SDS-PAGE and then Western blotted for either β1 or β3 integrin. The resulting gels are shown in FIG. 10 (β1) and FIG. 11 (β3).

NHDF cells = assay: Cytoskeletal rearrangement in NHDF cells (actin staining with phalloidin); assay type: cell-based, human; details: compared to buffer alone
Source text: gBDLD Triggers Cytoskeletal Rearrangements: β1 integrins are known inducers of broad signal transduction events. […] To test the role of gBDLD in mediating signaling events, we stimulated NHDF cells with buffer alone, gBDLD, or a known cytoskeletal reorganizer (EGF), followed by actin staining with phalloidin.

diI-labeled HCMV = assay type: cell-based, Human cytomegalovirus; details: gBDLD or BSA 320 μg/mL, soluble heparin 50 μg/mL; 24 hours post-infection
β1 integrin = target: T2, β1 integrin (Homo sapiens, UniProt P05556); assay: Integrin co-immunoprecipitation assay, Western blot for β1 integrin; assay type: binding; details: human fibroblast lysates, nickel beads
T2 construct: endogenous in cells; host or cells: Normal Human Dermal Fibroblasts (NHDF), 1% TX-100 lysate
Experimental: as §1, §2, §3

[1] = target: Normal human dermal fibroblasts; assay: Protein binding assay: gBDLD binding to human fibroblasts (His-tag ELISA)
Experimental: Normal human dermal fibroblasts were chilled to 4° C., washed three times with cold MES buffer and blocked with 1 mg/mL bovine serum albumin (BSA) for 30 minutes at 4° C. Unbound BSA was removed with cold MES washes (×4). The indicated amounts of gBDLD were added to each well for 90 minutes at 4° C. Cells were then washed three times with cold MES, twice with cold (phosphate-buffered saline (PBS) and fixed with 3% paraformaldehyde. An ELISA was then performed probing with anti-His rabbit polyclonal antibody (Santa Cruz Biotechnology, Santa Cruz, Calif.) and anti-rabbit HRP (Pierce). Absorbance was measured at 405 nm.
FIG. 7 is a graph depicting the results of a gBDLD binding assay (performed as described previously). Here, binding was measured by absorbance at 405 nm. […] To generate the data, human fibroblasts were incubated with gBDLD for the indicated times at 4° C. Cells were then washed, fixed and an ELISA was performed probing for the gBDLD […] his-tag. […]
FIG. 8 is a graph depicting gBDLD binding to human fibroblasts. As is readily apparent from FIG. 8, this binding is dose-dependent and saturable. […] After three IVIES washes and two PBS washes, cells were fixed in 3% paraformaldehyde and a His-tag ELISA was performed to quantitate gBDLD bound to cells.

[2] = Solubility of gBDLD in MES buffer; assay type: physicochemical; details: 55 mM MES, pH 5.5, 300 mM NaCl
Experimental: DNA sequence corresponding to amino acids 57-146 of HCMV AD169 glycoprotein B disintegrin-like domain (“gBDLD”) was cloned into the bacterial expression vector pET-28a containing an N-terminal His-Tag with thrombin cleavage site and kanamycin resistance. (Commercially available from Novagen, San Diego, Calif.) gBDLD production was induced by the addition of 1 mM isopropyl-βD-thiogalactopyranoside (IPTG). E. coli Tuner strain containing pET-28a:gBDLD was grown at 37° C. in Luria-Bertani medium containing kanamycin (50 μg/mL) to an optical density at 600 nm of approximately 0.6. IPTG (1 mM) was added and the plates were incubated continuously for 4 h at 37° C. Cells were harvested by centrifugation at 4000 r/min for 10 min and pellets were resuspended in 1% Triton X-100/Ni-NTA buffer (300 mM NaCl/50 mM Tris-HCL pH 7.9) and lysed by 3×60 s bursts of sonication. The lysate was centrifuged at 15,000 r/min for 15 minutes at 4° C. The 8M urea/Ni-NTA fraction was then poured into a chromatography column containing nickel-nitriloacetic acid agarose (Ni-NTA) beads at 4° C. and allowed to flow through. […] Fractions containing protein were determined by measuring the absorbance of each fraction at 214 nm. Fractions that corresponded to absorption peaks were analyzed by sodium dodecyl sulfate polyacrylamide electrophoresis (SDS-PAGE) to determine the size of the protein. […]

T1 sequence (P05106 27-788): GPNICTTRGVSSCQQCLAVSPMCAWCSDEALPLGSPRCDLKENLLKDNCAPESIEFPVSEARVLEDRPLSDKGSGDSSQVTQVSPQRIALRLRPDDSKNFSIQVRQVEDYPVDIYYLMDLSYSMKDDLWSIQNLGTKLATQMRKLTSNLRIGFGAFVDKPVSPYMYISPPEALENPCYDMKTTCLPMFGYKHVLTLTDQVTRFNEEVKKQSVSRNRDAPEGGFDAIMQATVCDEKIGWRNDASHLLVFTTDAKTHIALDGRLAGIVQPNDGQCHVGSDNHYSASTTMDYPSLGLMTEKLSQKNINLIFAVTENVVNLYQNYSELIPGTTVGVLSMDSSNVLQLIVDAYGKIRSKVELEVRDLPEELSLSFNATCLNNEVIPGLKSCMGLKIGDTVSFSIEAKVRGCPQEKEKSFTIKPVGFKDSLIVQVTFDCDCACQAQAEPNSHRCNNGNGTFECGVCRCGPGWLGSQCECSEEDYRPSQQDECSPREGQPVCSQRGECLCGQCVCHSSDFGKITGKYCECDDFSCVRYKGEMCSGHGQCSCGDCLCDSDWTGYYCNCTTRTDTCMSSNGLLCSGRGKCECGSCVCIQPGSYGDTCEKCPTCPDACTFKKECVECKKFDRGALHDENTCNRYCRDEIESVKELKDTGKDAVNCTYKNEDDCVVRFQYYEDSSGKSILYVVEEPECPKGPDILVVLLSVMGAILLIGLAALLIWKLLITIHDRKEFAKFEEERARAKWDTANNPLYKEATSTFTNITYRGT
T1 sequence (P06756 31-889 partner limits assumed): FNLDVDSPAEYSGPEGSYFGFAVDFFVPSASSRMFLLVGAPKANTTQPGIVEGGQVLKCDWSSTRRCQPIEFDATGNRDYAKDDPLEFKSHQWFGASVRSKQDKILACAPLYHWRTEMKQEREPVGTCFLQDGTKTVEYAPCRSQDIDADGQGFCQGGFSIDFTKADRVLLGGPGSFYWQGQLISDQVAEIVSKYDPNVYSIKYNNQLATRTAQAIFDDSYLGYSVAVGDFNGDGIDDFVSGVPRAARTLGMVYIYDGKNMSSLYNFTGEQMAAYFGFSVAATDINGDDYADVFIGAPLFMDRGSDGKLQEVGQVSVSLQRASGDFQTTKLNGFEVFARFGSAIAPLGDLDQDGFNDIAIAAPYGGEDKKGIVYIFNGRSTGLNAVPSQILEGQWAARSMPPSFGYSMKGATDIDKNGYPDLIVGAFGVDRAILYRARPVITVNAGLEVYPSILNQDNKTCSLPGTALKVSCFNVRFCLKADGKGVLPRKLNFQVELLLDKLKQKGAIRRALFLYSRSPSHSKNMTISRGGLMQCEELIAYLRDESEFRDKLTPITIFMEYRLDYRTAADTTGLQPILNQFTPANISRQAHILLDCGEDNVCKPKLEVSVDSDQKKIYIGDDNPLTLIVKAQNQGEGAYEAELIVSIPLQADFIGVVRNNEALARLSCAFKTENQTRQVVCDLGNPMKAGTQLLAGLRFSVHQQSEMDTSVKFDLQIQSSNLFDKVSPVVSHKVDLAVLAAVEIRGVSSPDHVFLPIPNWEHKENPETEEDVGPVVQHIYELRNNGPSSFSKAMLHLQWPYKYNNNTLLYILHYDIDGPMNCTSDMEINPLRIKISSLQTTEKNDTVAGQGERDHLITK
T1 sequence (P06756 891-1048 partner limits assumed): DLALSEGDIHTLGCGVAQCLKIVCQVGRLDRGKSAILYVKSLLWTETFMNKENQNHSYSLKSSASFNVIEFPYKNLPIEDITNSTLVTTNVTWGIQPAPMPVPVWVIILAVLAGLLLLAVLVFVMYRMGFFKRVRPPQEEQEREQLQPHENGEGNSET
T2 sequence (P05556 21-798): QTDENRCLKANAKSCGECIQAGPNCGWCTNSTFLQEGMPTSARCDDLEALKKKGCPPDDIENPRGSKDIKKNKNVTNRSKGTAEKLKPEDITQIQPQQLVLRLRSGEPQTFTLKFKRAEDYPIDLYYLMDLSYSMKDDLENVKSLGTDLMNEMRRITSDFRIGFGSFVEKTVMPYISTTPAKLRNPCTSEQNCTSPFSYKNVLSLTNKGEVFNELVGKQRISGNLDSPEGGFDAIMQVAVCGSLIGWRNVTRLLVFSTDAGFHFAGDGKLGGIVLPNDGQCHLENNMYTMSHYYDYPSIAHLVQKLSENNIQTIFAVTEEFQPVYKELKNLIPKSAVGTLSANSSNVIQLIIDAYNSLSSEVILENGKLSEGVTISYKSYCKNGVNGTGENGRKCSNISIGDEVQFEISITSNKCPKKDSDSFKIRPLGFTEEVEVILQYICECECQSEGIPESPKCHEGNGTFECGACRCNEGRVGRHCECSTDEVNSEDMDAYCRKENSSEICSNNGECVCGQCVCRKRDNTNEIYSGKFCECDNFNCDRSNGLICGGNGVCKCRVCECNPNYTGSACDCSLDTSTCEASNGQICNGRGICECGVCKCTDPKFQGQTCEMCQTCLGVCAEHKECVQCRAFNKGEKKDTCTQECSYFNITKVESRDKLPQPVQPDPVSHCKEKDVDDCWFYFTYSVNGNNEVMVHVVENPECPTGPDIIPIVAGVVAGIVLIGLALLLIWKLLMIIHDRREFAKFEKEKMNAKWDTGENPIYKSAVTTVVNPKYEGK

B1: gBDLD: amino acids 57-146 of HCMV AD169 glycoprotein B disintegrin-like domain, His-tagged, expressed in E. coli (protein)
chain: VTSSEAVSHRANETIYNTTLKYGDVVGVNTTKYPYRVCSMAQGTDLIRFERNIICTSMKPINEDLDEGIMVVYKRNIVAHTFKVRVYQKV
modifications: left off: small tags and cut ends
notes: amino acids 57-146 of HCMV AD169 glycoprotein B disintegrin-like domain, His-tagged, expressed in E. coli
For B1, the “interaction with β3 integrin (pull down)” value (β3 integrin) was “does not interact with β3 integrins”, the “reorganization of the cytoskeleton” value (NHDF cells) was “triggered a dramatic reorganization of the cytoskeleton” and the “block of HCMV fusion and gene expression” value (diI-labeled HCMV) was “complete block of HCMV fusion and gene expression”. The “interaction with β1 integrin (pull down)” value (β1 integrin) was “interacts with β1 integrins”, the “kinetics of gBDLD binding to human fibroblasts” value ([1]; 4° C., absorbance at 405 nm) was “rapid kinetics” and the “concentration at which binding to fibroblast monolayers reached saturation” value ([1]; 60 minutes, after BSA blocking) was 12.5 µg/mL. For the same molecule, the Solubility [2] was “approximately 1 mg/mL”.

— patent US20150104466A1, “CYTOMEGALOVIRUS DISINTEGRIN-LIKE PEPTIDES” (priority 2013, published 2015)
